According to patent US20230263916A1 (NANOMAB TECHNOLOGY, published 2023):

Experiments:
[1] = target: T1, human Her2 (ECD)-Fc protein (human, UniProt P04626 23-652); test: PE-ELISA, crude extract on antigen-coated plate
T1 construct: extracellular domain; Made in HEK293F cells; also called hHer2 (ECD)-Fc antigen; Her2 (ECD)-Fc antigen; not shown: TEV restriction site at the C-terminal of hHer2 (ECD); IgG1 Fc of the pFUSE-IgG1 vector
Description: (§1) (1) 10 μg Her2 (ECD)-Fc antigen (10 μg Fc in NaHCO₃ as control) dissolved in 100 mM NaHCO₃ (pH 8.2) was coupled to a NUNC plate then incubated at 4° C. overnight.
(§2) (5) The unbound antibody was washed off with PBST.
(§3) (6) When the OD value of the sample was over 3 times of the OD value of the control sample (Ratio+/−>3), the tested sample was determined to be a positive clone. […] Then all the positive clones were transferred to LA medium for plasmid extraction and sequencing.

[2] = target: T1, human Her2 (ECD)-Fc protein; test: PE-ELISA, A405 of antigen well over control well
Description: as §1, §2, §3

B1: Nanobody No. 12 (VHH)
VHH: QVQLQESGGGSVQAGETLRLSCTASGFTFDDSDMGWYRQAPGNECELVSTISSDGSTYYADSVKGRFTISQDNAKNTVYLQMNSLKPEDTAVYYCAADGHKYELGTCAALDYWGRGTQVTVSS
notes: also called 12; not shown: tags (HA, His) implied by anti-HA detection and nickel column
- A405+ [1]: 2.18 A405
- Ratio(+/-) [2]: 25.6

B2: Nanobody No. 1 (VHH)
VHH: QVQLQESGGGSVQAGETLRLSCTASGFTFDDSDMGWYRQAPGNECELVSTISSDGSTYYADSVKGRFTISQDNAKNTVYLQMNSLKPEDTAVYYCAAHPLHYELGTCAALDYWGRGTQVTVSS
notes: not shown: tags (HA, His) implied by anti-HA detection and nickel column
- A405+ [1]: 1.72 A405
- Ratio(+/-) [2]: 22.3

B3: Nanobody No. 2 (VHH)
VHH: QVQLQESGGGSVQAGETLRLSCTASGFTFDDSDMGWYRQAPGNECELVSTISSDGSTYYADSVKGRFTISQDNAKNAVYLQMNSLKPEDTAVYYCAAHPLHYELGTCAALDYWGRGTQVTVSS
notes: as for B2
- A405+ [1]: 1.53 A405
- Ratio(+/-) [2]: 19.3

B4: Nanobody No. 8 (VHH)
VHH: QVQLQESGGGSVQAGETLRLSCTASGFTFDESVMGWYRQAPGNECELVSTISSDGSTYYSNSVKGRFTISQDNAKNTVYLQMNSLKPEDTAVYYCAADDHTYELGTCEALNYWGRGTQVTVSS
notes: as for B2
- A405+ [1]: 2.56 A405
- Ratio(+/-) [2]: 28

B5: Nanobody No. 11 (VHH)
VHH: QVQLQESGGGSVQAGETLRLSCTASGFTFDDSDMGWYRQAPGNECELVSHISSGGSTYYADSVKGRFTISQDNAKNTVYLQMNSLKPEDTAVYYCAADGSNYELGTCAALDYWGRGTQVTVSS
notes: also called 11; not shown: tags (HA, His) implied by anti-HA detection and nickel column
- A405+ [1]: 1.88 A405
- Ratio(+/-) [2]: 25.5

B6: Nanobody No. 14 (VHH)
VHH: QVQLQESGGGSVQAGETLRLSCTASGFTFDDSDMGWYRQAPGNECELVSRISSDGSTYYADSVKGRFTISQDNAKNTVYLQMNSLKPEDTAVYYCAALEWEYELGTCEALDYWGQGTQVTVSS
notes: also called 14; not shown: tags (HA, His) implied by anti-HA detection and nickel column
- A405+ [1]: 1.96 A405
- Ratio(+/-) [2]: 24.4

B7: Nanobody No. 15 (VHH)
VHH: QVQLQESGGGSVQAGGSLRLSCTASRFTFDDSDMGWYRQAPGNECELVSTISSDGATYYANSVKGRFTISQDNAANTVYLQMNSLKPEDTAVYYCAALEWEYELGTCEALDYWGQGTQVTVSS
notes: also called 15; not shown: tags (HA, His) implied by anti-HA detection and nickel column
- A405+ [1]: 2.27 A405
- Ratio(+/-) [2]: 26.1

B8: Nanobody No. 16 (VHH)
VHH: QVQLQESGGGSVQAGGSLRLSCTASGFTFDDSDMVWYRQAPGNECELVSRISSDGSTYYADSVKGRFTISQDNAKNTVYLQMNSLKPEDTAVYYCAALEWEYELGTCEALDYWGQGTQVTVSS
notes: also called 16; not shown: tags (HA, His) implied by anti-HA detection and nickel column
- A405+ [1]: 1.79 A405
- Ratio(+/-) [2]: 23.5

B9: Nanobody No. 20 (VHH)
VHH: QVQLQESGGGSVQAGGSLRLSCTASGFTFDDSVMGWFRKAPGNECELVSTISSDGSTYYADSVKGRFTISQDNAKNTVYLQMNNLKPEDTAVYYCAAINSGYELGTCESLDYWGRGTQVTVSS
notes: also called 20; not shown: tags (HA, His) implied by anti-HA detection and nickel column
- A405+ [1]: 1.47 A405
- Ratio(+/-) [2]: 10.2

B10: Nanobody No. 28 (VHH)
VHH: QVQLQESGGGLVQPGGSLRLSCAASGFTFGDSGMGWYRQAPGNECELVSSVSSDGSTYYADSVKGRFTISQDNAKNTVYLRMNSLKPEDTAVYYCAADDHKYELGTCEALDYWGRGTQVTVSS
notes: also called 28; not shown: tags (HA, His) implied by anti-HA detection and nickel column
- A405+ [1]: 1.86 A405
- Ratio(+/-) [2]: 23.3

B11: Nanobody No. 30 (VHH)
VHH: QVQLQESGGGSVQAGETLRLSCTASGFTFDDSDMGWYRQAPGNECELVSTISSDGRTYYADSVKGRFAISQNNAKNTVYLQMNSLKPEDTAVYYCAADQHRYGLGTCEALDYWGRGTQVTVSS
notes: also called 30; not shown: tags (HA, His) implied by anti-HA detection and nickel column
- A405+ [1]: 2.31 A405
- Ratio(+/-) [2]: 23.9

B12: Nanobody No. 3 (VHH)
VHH: QVQLQESGGGSVQAGGSLRLSCTASGFTFDDSDVRWYRQAPGRECKLVSSISSDRSAYYEDSVKGRFTISQDNAKNTVYLQMNSLKPEDTAVYYCAAHPLHYELGTCAALDYWGRGTQVTVSS
notes: as for B2
- A405+ [1]: 1.31 A405
- Ratio(+/-) [2]: 13

B13: Nanobody No. 4 (VHH)
VHH: QVQLQESGGGLVQPGGSLRLSCTASRFTFDDSDMAWYRQAPGNECELVSIISSDGSTYYADSVKGRFTISLDNTKSTVYLQMNSLKPEDTAVYYCAAHPLHYELGTCAALDYWGRGTQVTVSS
notes: as for B2
- A405+ [1]: 1.97 A405
- Ratio(+/-) [2]: 21.2

B14: Nanobody No. 5 (VHH)
VHH: QVQLQESGGGSVQAGGSLRLSCTVSGFSFDDSDMGWYRRAPGNECELVSGISRDGSTYYADSVKGRFTISQDNAKNWVYLQMNSLKPEDTAVYYCAAATYSDYVCDYWTQGTQVTVSS
notes: as for B2
- A405+ [1]: 1.1 A405
- Ratio(+/-) [2]: 12.7

B15: Nanobody No. 6 (VHH)
VHH: QVQLQESGGGSVQAGETLRLSCTASGFTFDDSDMGWYRQAPGNECELVSHISSDGSTYYADSVKGRFTISQDNAKNTVFLQMNSLKPEDTAVYYCAADKDARGYELGTCESLDYWGRGTQVTVSS
notes: as for B2
- A405+ [1]: 2.14 A405
- Ratio(+/-) [2]: 23.4

B16: Nanobody No. 7 (VHH)
VHH: QVQLQESGGGSVQAGETLRLSCTASGFTFDDSDMGWYRQAPGNECELVSTISSDGSTYYADSVKGRFTISQDNAKNTVYLQMNSLKPEDTAVYYCAADKDARGYELGTCESLDYWGRGTQVTVSS
notes: as for B2
- A405+ [1]: 2.24 A405
- Ratio(+/-) [2]: 27.4

B17: Nanobody No. 18 (VHH)
VHH: QVQLQESGGGSVQAGQTLRLSCTASGFTFDDSDMAWYRQAPGNECELVSKMRSDGSTYYADSVKGRFTISQDNAKNTVYLQMNSLKPEDTAVYYCAEDLPYGLGTCTSLDYWGRGTQVTVSS
notes: also called 18; not shown: tags (HA, His) implied by anti-HA detection and nickel column
- A405+ [1]: 1.59 A405
- Ratio(+/-) [2]: 19.2

B18: Nanobody No. 19 (VHH)
VHH: QVQLQESGGGSVQAGGSLRLSCTASGFTFDDSDSDMGWYRQAPGNECELVSSISSDGSTYYADSVKGRFTISQDNAKNTVYLQMNSLKPEDTAVYYCAAINSGYELGTCESLDYWGRGTQVTVSS
notes: also called 19; not shown: tags (HA, His) implied by anti-HA detection and nickel column
- A405+ [1]: 1.77 A405
- Ratio(+/-) [2]: 19.6

B19: Nanobody No. 21 (VHH)
VHH: QVQLQESGGGLVQPRGSLRLSCTASGFTFDDSDSDMGWYRQAPGNECELVSSISSDGSTYYADSVKGRFTISQDNAKNTVYLQMNSLKPEDTAVYYCAAINSGYELGTCESLDYWGRGTQVTVSS
notes: also called 21; not shown: tags (HA, His) implied by anti-HA detection and nickel column
- A405+ [1]: 2.09 A405
- Ratio(+/-) [2]: 20.3

B20: Nanobody No. 24 (VHH)
VHH: QVQLQESGGGSVQAGETLRLSCTASGFTFDDSDSDMGWYRQAPGNECELVSSISSDGSTYYADSVKGRFTISQDNAKNTVYLQMNSLKPEDTAVYYCAAINSGYELGTCESLDYWGRGTQVTVSS
notes: also called 24; not shown: tags (HA, His) implied by anti-HA detection and nickel column
- A405+ [1]: 2.68 A405
- Ratio(+/-) [2]: 23.7

B21: Nanobody No. 25 (VHH)
VHH: QVQLQESGGGSVQAGETLRLSCTASGFTFDDSDSDMGWYRQAPGNECELVSSISSDGSTYYADSVKGRFTISQDNAKNTVYLQMNSPKPEDTAVYYCAAINSGYELGTCESLDYWGRGTQVTVSS
notes: also called 25; not shown: tags (HA, His) implied by anti-HA detection and nickel column
- A405+ [1]: 1.97 A405
- Ratio(+/-) [2]: 22.4

B22: Nanobody No. 27 (VHH)
VHH: QVQLQESGGGSVQAGETLRLSCTASGFTFDDSDMGWYRQAPGNECELVSTISSDGSTYYADSVKGRFTISQDNAKNTVYLQMNSLKPEDTAVYYCAADHGGGYELGTCAALDYWGRGTQVTVSS
notes: also called 27; not shown: tags (HA, His) implied by anti-HA detection and nickel column
- A405+ [1]: 1.66 A405
- Ratio(+/-) [2]: 20.5

B23: Nanobody No. 29 (VHH)
VHH: QVQLQESGGGSVQAGGSLRLSCTASGFTFDDLDMRWYRQAPGNECELVSIINSDGRTYYADSVKGRFAISQNNAKNTVYLQMNSLKPEDTAVYYCAADQHRYGLGTCEALDYWGRGTQVTVSS
notes: also called 29; not shown: tags (HA, His) implied by anti-HA detection and nickel column
- A405+ [1]: 1.48 A405
- Ratio(+/-) [2]: 18.8

B24: Nanobody No. 31 (VHH)
VHH: QVQLQESGGGSVQAGETLRLSCTASGFTFNDSNMGWYRQAPGHECELVSTISSDGSTYYADSVKGRFTISQNNARNTVYLQMNSLKPEDTAVYYCAGDWGYELGICTSLDYWGQGTQVTVSS
notes: also called 31; not shown: tags (HA, His) implied by anti-HA detection and nickel column
- A405+ [1]: 1.65 A405
- Ratio(+/-) [2]: 21.4

B25: Nanobody No. 33 (VHH)
VHH: QVQLQESGGGSVQAGGSLRLSCTASGFTFDDVDMGWYRQAPGNECELVSTISSDGSTYYADSVKGRFTISQDNAKNTVYLQMNSLKPEDTAMYYCAAARYSDYEGMCGYWSQGTQVTVSS
notes: also called 33; not shown: tags (HA, His) implied by anti-HA detection and nickel column
- A405+ [1]: 2.05 A405
- Ratio(+/-) [2]: 21.3

B26: Nanobody No. 32 (VHH)
VHH: QVQLQESGGGSVQAGGSLRLSCTASGFTFDDVDMGWYRQASGNECELVSTISSDGSTYYADSVKGRFTISQDNAKNTVYLQMNSLKPEDTAMYYCAAARYSDYEGMCGYWSQGTQVTVSS
notes: also called 32; not shown: tags (HA, His) implied by anti-HA detection and nickel column
- A405+ [1]: 2.36 A405
- Ratio(+/-) [2]: 25.3

B27: Nanobody No. 34 (VHH)
VHH: QVQLQESGGGSVQAGGSLRLSCTVSGFTFDDVDMGWYRQAPGNECELVSTISSDGSTYYADSVKGRFTISQDNAKNTVYLQMNSLKPEDTAMYYCAAARYSDYEGMCGYWSQGTQVTVSS
notes: also called 34; not shown: tags (HA, His) implied by anti-HA detection and nickel column
- A405+ [1]: 2.26 A405
- Ratio(+/-) [2]: 20

B28: Nanobody No. 35 (VHH)
VHH: QVQLQESGGGLVQPGGSLRLSCAASGFTFDDVDMGWYRQAPGNECELVSTISSDGSTYYADSVKGRFTISQDNAKNTVYLQMNSLKPEDTAMYYCAAARYSDYEGMCGYWSQGTQVTVSS
notes: also called 35; not shown: tags (HA, His) implied by anti-HA detection and nickel column
- A405+ [1]: 1.99 A405
- Ratio(+/-) [2]: 21

B29: Nanobody No. 36 (VHH)
VHH: QVQLQESGGGSVQAGESLRLSCRTSGFSFDDVDMGWYRQAPGNECELVSTISSDGSTYYADSVKGRFTISQDNAKNTVYLQMNSLKPEDTAMYYCAAARYSDYEGMCGYWSQGTQVTVSS
notes: also called 36; not shown: tags (HA, His) implied by anti-HA detection and nickel column
- A405+ [1]: 2.22 A405
- Ratio(+/-) [2]: 21.6
